{
  "source": "patent US20050037969A1",
  "about": "(ARBOR VITA, published 2005)",
  "binders": {"B1": {"name": "Fas (CD95) 8-mer competitor peptide RNEIQSLV (unlabeled) (peptide)", "peptide": "RNEIQSLV", "notes": "also called FAS-8-mer; 8-mer peptide corresponding to the C-terminus of CD95 (Fas)"}, "B2": {"name": "30 (peptide)", "peptide": "Biotin-TIYENLAPVTTFGKTIA", "notes": "Not the same peptide as m50 (AA19L, ending GYIA); the key gives AA55L for peptide 30; also called CD148"}},
  "key": {"[1]": {"target": "T1, GST-PSD95 fusion protein (PDZ domains 1-3) (human, UniProt P31016 56-395 (rat entry))", "T1 construct": "also called human post-synaptic density protein 95; not shown: glutathione S-transferase encoded by vector pGEX-3X (Pharmacia)", "T1 sequence (P31016 other isoform, or with tags, fused parts or gaps)": "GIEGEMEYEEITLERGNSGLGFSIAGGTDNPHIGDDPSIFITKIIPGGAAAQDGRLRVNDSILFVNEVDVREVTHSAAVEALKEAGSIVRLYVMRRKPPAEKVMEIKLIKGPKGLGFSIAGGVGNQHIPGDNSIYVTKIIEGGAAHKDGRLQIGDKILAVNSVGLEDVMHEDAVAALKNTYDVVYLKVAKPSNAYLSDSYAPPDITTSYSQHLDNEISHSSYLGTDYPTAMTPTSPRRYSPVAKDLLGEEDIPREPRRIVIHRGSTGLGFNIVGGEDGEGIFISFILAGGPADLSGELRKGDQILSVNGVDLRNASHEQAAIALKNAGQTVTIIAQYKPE", "experiment": "G assay competition on plate-bound GST-PSD95, competitor at 100 uM; blocked ligands: biotinylated Clasp 2 and CD46 (20 uM), Fas and KV1.3 (10 uM) peptides"}, "[2]": {"target": "T2, GST-41.8 kD protein (KIAA0751) PDZ domain fusion protein (Mus musculus (Mouse), UniProt Q9EQZ7 682-763)", "T2 construct": "also called 41 kd; hypoth; not shown: glutathione S-transferase encoded by vector pGEX-3X (Pharmacia)", "T2 sequence": "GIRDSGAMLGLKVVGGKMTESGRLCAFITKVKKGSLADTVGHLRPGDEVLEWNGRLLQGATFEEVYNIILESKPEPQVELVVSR", "experiment": "G assay competition on plate-bound GST-41.8kD; blocked ligand: 20 uM biotinylated CD49E peptide"}, "[3]": {"target": "T1, GST-PSD95 fusion protein (PDZ domains …)", "experiment": "G assay: biotinylated peptide on plate-bound GST-PDZ fusion, OD 450 nm"}, "[4]": {"target": "T3, KIAA0807 (PDZ domain)-GST fusion protein (human, UniProt Q6P0Q8 1104-1192)", "T3 construct": "also called K807; KIAA807; not shown: glutathione S-transferase encoded by vector pGEX-3X (Pharmacia)", "T3 sequence": "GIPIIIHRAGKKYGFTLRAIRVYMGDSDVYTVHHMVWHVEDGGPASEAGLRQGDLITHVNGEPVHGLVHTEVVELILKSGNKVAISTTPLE", "experiment": "G assay competition against 1 uM BLR-1 20-mer"}, "[5]": {"target": "T3, KIAA0807 (PDZ domain)-GST fusion protein", "experiment": "G assay competition against 10 uM DOCK2 20-mer; 8-mer DOCK2 peptide competing against 10 uM DOCK2 20-mer"}, "[6]": {"target": "T3, KIAA0807 (PDZ domain)-GST fusion protein", "experiment": "G assay competition against 10 uM DOCK2 20-mer; acetyl-STDL competing against 10 uM DOCK2 20-mer"}},
  "note": "Ends that are not written are not given here. * marks the point of attachment. Biotin = O=C1N[C@H]2[C@H](CS[C@H]2CCCCC(=O)*)N1",
  "data": [
    {"binder": "REVKFTSL", "note": "[CD46 8-mer competitor peptide REVKFTSL (unlabeled)]", "values": [
      {"measurement": "binding result", "setting": "[1]", "value": "binds"}
    ]},
    {"binder": "B1", "values": [
      {"measurement": "binding result", "setting": "[1]", "value": "binds"}
    ]},
    {"binder": "TTNNNPNSAVNIKKIFTDV (also called KV13 peptide)", "note": "[unlabeled 19-mer having the sequence of the C-terminus of KV1.3 (non-biotinylated AA33L)]", "values": [
      {"measurement": "binding result", "setting": "[1]", "value": "binds"}
    ]},
    {"binder": "ATSDA (also called 5-mer CD49E peptide ATSDA)", "note": "[CD49E 5mer]", "values": [
      {"measurement": "binding result", "setting": "[2]", "value": "binds"}
    ]},
    {"binder": "B2", "values": [
      {"measurement": "binding result", "setting": "[3]", "value": "no binding"}
    ]},
    {"binder": "NATSLTTF (also called BLR-1 8-mer)", "note": "[8-mer peptide corresponding to the C-terminus of BLR-1]", "values": [
      {"measurement": "IC50", "setting": "[4]", "value": "> 100", "unit": "µM"}
    ]},
    {"binder": "Ac-LTTF (it is an N-acetyl tetrapeptide)", "note": "[acetyl-LTTF]", "values": [
      {"measurement": "IC50", "setting": "[4]", "value": 1, "unit": "µM"}
    ]},
    {"binder": "PDSLSTDL (also called DOCK2 8-mer)", "note": "[8-mer peptide corresponding to the C-terminus of DOCK2]", "values": [
      {"measurement": "IC50", "setting": "[5]", "value": 250, "unit": "µM"}
    ]},
    {"binder": "Ac-STDL (it is an N-acetyl tetrapeptide)", "note": "[acetyl-STDL]", "values": [
      {"measurement": "IC50", "setting": "[6]", "value": "< 250", "unit": "µM"}
    ]}
  ]
}
